Laboratory results as given in paper PMC7949108, “Medulloblastoma-associated mutations in the DEAD-box RNA helicase DDX3X/DED1 cause specific defects in translation”.

Tests used:
Assay in all cases: fluorescence anisotropy; 2 mM ADP-BeFx; 20 mM HEPES pH 7.5, 40 mM NaCl, 20% glycerol, 2 mM ADP-BeFx; 2 nM RNA, 0-400 nM protein, 30 min; temperature not stated
Details in all cases: protein: recombinant; tags: His (pET28a); label: 5' 6-carboxyfluorescein; single strand
[1] = target: Ded1 wild-type (Saccharomyces cerevisiae, UniProt P06634 1-604)
[2] = target: Ded1-S371F (Saccharomyces cerevisiae, UniProt P06634 1-604, S371F)
[3] = target: Ded1-G488A (Saccharomyces cerevisiae, UniProt P06634 1-604, G488A)
[4] = target: Ded1-M339I (Saccharomyces cerevisiae, UniProt P06634 1-604, M339I)
Chain of Ded1-M339I (P06634 whole entry M339I): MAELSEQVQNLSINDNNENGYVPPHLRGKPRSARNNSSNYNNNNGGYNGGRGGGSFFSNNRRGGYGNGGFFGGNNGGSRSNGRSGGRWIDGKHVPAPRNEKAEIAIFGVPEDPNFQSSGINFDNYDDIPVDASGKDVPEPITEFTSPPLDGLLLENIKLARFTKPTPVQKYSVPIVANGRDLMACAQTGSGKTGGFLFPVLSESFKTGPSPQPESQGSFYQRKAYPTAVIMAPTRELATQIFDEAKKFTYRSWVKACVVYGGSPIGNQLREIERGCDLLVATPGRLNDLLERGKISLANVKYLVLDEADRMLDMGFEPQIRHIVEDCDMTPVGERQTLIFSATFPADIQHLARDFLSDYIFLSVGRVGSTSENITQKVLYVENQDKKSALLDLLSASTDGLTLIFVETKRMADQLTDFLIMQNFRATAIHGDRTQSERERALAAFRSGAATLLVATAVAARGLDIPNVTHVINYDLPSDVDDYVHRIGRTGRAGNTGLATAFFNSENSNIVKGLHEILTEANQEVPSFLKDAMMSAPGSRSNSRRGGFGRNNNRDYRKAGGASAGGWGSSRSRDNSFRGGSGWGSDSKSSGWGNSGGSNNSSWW

Chain of Ded1-S371F (P06634 whole entry S371F): as the sequence (P06634 whole entry M339I) above, with I339M, S371F counted along it
Chain of Ded1-G488A (P06634 whole entry G488A): as the sequence (P06634 whole entry M339I) above, with I339M, G488A counted along it
Chain of Ded1 wild-type (P06634 whole entry): as the sequence (P06634 whole entry M339I) above, with I339M counted along it

AGCACCGUAAAGACGC (ssRNA) [16-mer RNA oligomer]
Kd [1]: 13 nM
Kd [2]: 11 nM
Kd [3]: 78 nM
Kd [4]: 110 nM
